The record followed here is patent publication US10421817 (BEIJING MABWORKS BIOTECH, dated 2019).

The target of one test is T1, human Claudin 18.2 (human).
T1 construct: Overexpressed on HEK293A or MC38 cells by lentivirus; endogenous on KATO-III and NUGC-4 cells
Briefly: FACS on HEK-293A cells expressing human Claudin 18.2.

Another test concerns the target T2, human Claudin 18.1 (human, UniProt P56856 1-261).
T2 construct: Overexpressed on HEK293A cells by lentivirus
Briefly: FACS on HEK293A cells expressing human Claudin 18.1 WT.

In test [1] the target is T3, human Claudin 18.1 Mutant 15 (Claudin 18.1/S42A/Q45N/Q56E) (human, UniProt P56856 1-261).
T3 chain: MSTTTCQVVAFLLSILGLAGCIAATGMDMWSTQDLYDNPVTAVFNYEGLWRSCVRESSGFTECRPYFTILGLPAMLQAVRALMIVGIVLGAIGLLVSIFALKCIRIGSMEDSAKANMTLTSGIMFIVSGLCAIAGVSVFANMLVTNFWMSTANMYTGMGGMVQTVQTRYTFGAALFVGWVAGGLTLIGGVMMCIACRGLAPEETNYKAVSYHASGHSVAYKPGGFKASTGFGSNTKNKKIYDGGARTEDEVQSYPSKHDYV
Briefly: FACS on HEK293A cells expressing mutant 15.

Test [2] has as its target human Claudin 18.1 Mutant 14 (Q56E) (human, UniProt P56856 1-261). Briefly: FACS on HEK293A cells expressing mutant 14.
The target in test [3] is T4, human Claudin 18.1 Mutant 16 (Claudin 18.1/S42A/Q45N/E47Q/Q56E) (human, UniProt P56856 1-261).
T4 chain: T3 chain with E47Q
As to the kind of experiment: FACS on HEK293A cells expressing mutant 16.

Residue numbers refer to the chain shown, from its start.

A word on the EC50: it is the concentration at which the effect is half-maximal. Higher therefore signals weaker potency.

B1: IMAB362 (antibody, V domains shown)
VH: QVQLQQPGAELVRPGASVKLSCKASGYTFTSYWINWVKQRPGQGLEWIGNIYPSDSYTNYNQKFKDKATLTVDKSSSTAYMQLSSPTSEDSAVYYCTRSWRGNSFDYWGQGTTLTVSS
VL: DIVMTQSPSSLTVTAGEKVTMSCKSSQSLLNSGNQKNYLTWYQQKPGQPPKLLIYWASTRESGVPDRFTGSGSGTDFTLTISSVQAEDLAVYYCQNDYSYPFTFGSGTKLEIKR
Take B1: the midpoint of the response with human Claudin 18.2, the EC50, lay at 0.634 nM.

B2: 18F2-30VH0VL0 (antibody, human IgG1, kappa, V domains shown)
VH: QVQLVQSGAEVKKPGASVKVSCKASGYTFTSFWLNWVRQAPGQGLEWMGNIYPSTSYTVYNQKFKDRVTMTRDTSTSTVYMELSSLRSEDTAVYYCARTWRGNSFDYWGQGTTVTVSS
VL: DIVMTQSPDSLAVSLGERATINCKSSQSLLNSGNQKNYVTWYQQKPGQPPKLLIYWGSTRSTGVPDRFSGSGSGTDFTLTISSLQAEDVAVYYCQNDYTYPFTFGQGTKLEIKR
notes: Humanized, human IgG1/kappa constant regions
For the molecule B2, the binding result in the test with human Claudin 18.1 is reported as “no binding”; in test [1], “binds”; in test [2] it was “binds”; in test [3], “binds”.

B3: 18F2-35VH0VL0 (antibody, human IgG1, kappa, V domains shown)
VH: B2 VH with V59I
VL: B2 VL with V39L, S61V, T62R
notes: as for B2
In the case of B3, the binding result is listed as “no binding” with human Claudin 18.1, “binds” in test [1], “binds” in test [2] and “binds” in test [3].

B4: 18F2-30VH7VL3 (antibody, human IgG1, kappa, V domains shown)
VH: B2 VH with R38K, A40R, M48I, R67K, M70L, R72V, T74K, V79A, A97T
VL: B2 VL with D9S, A12T, R18K, N22S, V89L, Q106S
notes: as for B2
B4: the binding result in the test with human Claudin 18.1 is “no binding”; in test [1], “binds”; in test [2], “binds”; in test [3] it was “binds”.
